{"source": "ChEMBL document CHEMBL2074453", "about": "“Role of multidrug resistance protein 1 (MRP1) and glutathione S-transferase A1-1 in alkylating agent resistance. Kinetics of glutathione conjugate formation and efflux govern differential cellular sensitivity to chlorambucil versus melphalan toxicity” (J Biol Chem, 2001)", "key": {"[1]": {"substrate": "NC(Cc1ccc(N(CCCl)CCSC[C@H](NC(=O)CC[C@H](N)C(=O)O)C(=O)NCC(=O)O)cc1)C(=O)O", "assay": "TP_TRANSPORTER: uptake in membrane vesicle from MCF7/VP cells", "format": "functional, cell membranes"}, "[2]": {"substrate": "NC(CCC(=O)NC(CSCCN(CCCl)c1ccc(CCCC(=O)O)cc1)C(=O)NCC(=O)O)C(=O)O", "assay": "TP_TRANSPORTER: uptake in membrane vesicle from MCF/VP cells", "format": "functional, cell membranes"}}, "data": [{"protein": "Multidrug resistance-associated protein 1 (Homo sapiens) (protein) MALRGFCSADGSDPLWDWNVTWNTSNPDFTKCFQNTVLVWVPCFYLWACFPFYFLYLSRHDRGYIQMTPLNKTKTALGFLLWIVCWADLFYSFWERSRGIFLAPVFLVSPTLLGITMLLATFLIQLERRKGVQSSGIMLTFWLVALVCALAILRSKIMTALKEDAQVDLFRDITFYVYFSLLLIQLVLSCFSDRSPLFSETIHDPNPCPESSASFLSRITFWWITGLIVRGYRQPLEGSDLWSLNKEDTSEQVVPVLVKNWKKECAKTRKQPVKVVYSSKDPAQPKESSKVDANEEVEALIVKSPQKEWNPSLFKVLYKTFGPYFLMSFFFKAIHDLMMFSGPQILKLLIKFVNDTKAPDWQGYFYTVLLFVTACLQTLVLHQYFHICFVSGMRIKTAVIGAVYRKALVITNSARKSSTVGEIVNLMSVDAQRFMDLATYINMIWSAPLQVILALYLLWLNLGPSVLAGVAVMVLMVPVNAVMAMKTKTYQVAHMKSKDNRIKLMNEILNGIKVLKLYAWELAFKDKVLAIRQEELKVLKKSAYLSAVGTFTWVCTPFLVALCTFAVYVTIDENNILDAQTAFVSLALFNILRFPLNILPMVISSIVQASVSLKRLRIFLSHEELEPDSIERRPVKDGGGTNSITVRNATFTWARSDPPTLNGITFSIPEGALVAVVGQVGCGKSSLLSALLAEMDKVEGHVAIKGSVAYVPQQAWIQNDSLRENILFGCQLEEPYYRSVIQACALLPDLEILPSGDRTEIGEKGVNLSGGQKQRVSLARAVYSNADIYLFDDPLSAVDAHVGKHIFENVIGPKGMLKNKTRILVTHSMSYLPQVDVIIVMSGGKISEMGSYQELLARDGAFAEFLRTYASTEQEQDAEENGVTGVSGPGKEAKQMENGMLVTDSAGKQLQRQLSSSSSYSGDISRHHNSTAELQKAEAKKEETWKLMEADKAQTGQVKLSVYWDYMKAIGLFISFLSIFLFMCNHVSALASNYWLSLWTDDPIVNGTQEHTKVRLSVYGALGISQGIAVFGYSMAVSIGGILASRCLHVDLLHSILRSPMSFFERTPSGNLVNRFSKELDTVDSMIPEVIKMFMGSLFNVIGACIVILLATPIAAIIIPPLGLIYFFVQRFYVASSRQLKRLESVSRSPVYSHFNETLLGVSVIRAFEEQERFIHQSDLKVDENQKAYYPSIVANRWLAVRLECVGNCIVLFAALFAVISRHSLSAGLVGLSVSYSLQVTTYLNWLVRMSSEMETNIVAVERLKEYSETEKEAPWQIQETAPPSSWPQVGRVEFRNYCLRYREDLDFVLRHINVTINGGEKVGIVGRTGAGKSSLTLGLFRINESAEGEIIIDGINIAKIGLHDLRFKITIIPQDPVLFSGSLRMNLDPFSQYSDEEVWTSLELAHLKDFVSALPDKLDHECAEGGENLSVGQRQLVCLARALLRKTKILVLDEATAAVDLETDDLIQSTIRTQFEDCTVLTIAHRLNTIMDYTRVIVLDKGEIQEYGAPSDLLQQRGLFYSMAKDAGLV", "values": [{"measurement": "Km", "setting": "[1]", "value": 1.14, "unit": "µM"}, {"measurement": "Km", "setting": "[2]", "value": 0.37, "unit": "µM"}]}]}
